Patent publication US20200222503A1 (published 2020)
Each block holds one binder with its values, some of them ahead of it.

B2: murine CD172a(SIRPα)-Fc-CD40L chimeric protein (Fc fusion, UniProt P97797 32-373, looked up)
chain: KELKVTQPEKSVSVAAGDSTVLNCTLTSLLPVGPIRWYRGVGPSRLLIYSFAGEYVPRIRNVSDTTKRNNMDFSIRISNVTPADAGIYYCVKFQKGSSEPDTEIQSGGGTEVYVLAKPSPPEVSGPADRGIPDQKVNFTCKSHGFSPRNITLKWFKDGQELHPLETTVNPSGKNVSYNISSTVRVVLNSMDVNSKVICEVAHITLDRSPLRGIANLSNFIRVSPTVKVTQQSPTSMNQVNLTCRAERFYPEDLQLIWLENGNVSRNDTPKNLTKNTDGTYNYTSLFLVNSSAHREDVVFTCQVKHDQQPAITRNHTVLGFAHSSDQGSMQTFPDNNATHNWNHRRLDKVEEEVNLHEDFVFIKKLKRCNKGEGSLSLLNCEEMRRQFEDLVKDITLNKEEKKENSFEMQRGDEDPQIAAHVVSEANSNAASVLQWAKKGYYTMKSNLVMLENGKQLTVKREGLYYVYTQVTFCSNREPSSQRPFIVGLWLKPSSGSERILLKAANTHSSSQLCEQQSVHLGGVFELQAGASVFVNVTEASQVIHRVGFSSFGLLKL
notes: extracellular domain; also called mCD172a(SIRPα)-Fc-CD40L; not shown: Fc linker of the murine construct is not specified
B4: murine PD-1-Fc-OX40L chimeric protein (Fc fusion, UniProt Q02242 25-169, looked up)
chain: LEVPNGPWRSLTFYPAWLTVSEGANATFTCSLSNWSEDLMLNWNRLSPSNQTEKQAAFCNGLSQPVQDARFQIIQLPNRHDFHMNILDTRRNDSGIYLCGAISLHPKAKIEESPGAELVVTERILETSTRYPSPSPKPEGRFQGMSSSPAKDPPIQRLRGAVTRCEDGQLFISSYKNEYQTMEVQNNSVVIKCDGLYIIYLKGSFFQEVKIDLHFREDHNPISIPMLNDGRRIVFTVVASLAFKDKVYLTVNAPDTLCEHLQINDGELIVVQLTPGYCAPEGSYHSTVNQVPL
notes: extracellular domain; also called mPD-1-Fc-OX40L; not shown: Fc linker of the murine construct is not specified

Assays:
[1] = target: B4; test: SPR, BioRad ProteOn XPR 360, His-tagged target on chip
[2] = target: T1, murine CD40 on CHOK1 cells (murine, UniProt P27512 20-289); test: flow cytometry on CHOK1/mCD40 cells
T1 construct: whole, on cells; also called mCD40; CHOK1/mCD40
T1 sequence (P27512 20-289): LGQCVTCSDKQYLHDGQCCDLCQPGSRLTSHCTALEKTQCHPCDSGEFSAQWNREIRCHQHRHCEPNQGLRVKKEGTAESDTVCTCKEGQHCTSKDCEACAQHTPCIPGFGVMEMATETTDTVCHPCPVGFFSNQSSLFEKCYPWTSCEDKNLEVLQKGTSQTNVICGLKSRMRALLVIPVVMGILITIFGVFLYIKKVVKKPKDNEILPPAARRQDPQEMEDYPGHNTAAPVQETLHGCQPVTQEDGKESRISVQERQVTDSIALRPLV
From the text: Cells were collected, washed, and stained with antibodies for the detection of the chimeric protein binding by flow cytometry.

[3] = target: B2; test: SPR
[4] = target: T2, FcRn-His (Example 11) (Mus musculus (Mouse), UniProt Q61559 22-297; P01887 21-119); test: SPR, BioRad ProteOn XPR 360, His-tagged target on chip
T2 construct: copies: 1 + 1
T2 sequence (alpha): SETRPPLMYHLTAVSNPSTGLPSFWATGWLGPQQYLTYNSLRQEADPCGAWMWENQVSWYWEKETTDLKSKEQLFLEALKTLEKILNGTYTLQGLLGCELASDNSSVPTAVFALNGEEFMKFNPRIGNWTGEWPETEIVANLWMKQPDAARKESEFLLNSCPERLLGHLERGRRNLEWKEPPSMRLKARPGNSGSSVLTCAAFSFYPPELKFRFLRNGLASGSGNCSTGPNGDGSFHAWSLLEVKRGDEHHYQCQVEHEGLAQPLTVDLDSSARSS
T2 sequence (beta): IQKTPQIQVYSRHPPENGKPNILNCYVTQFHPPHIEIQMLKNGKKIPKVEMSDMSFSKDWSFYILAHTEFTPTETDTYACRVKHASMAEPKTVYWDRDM

[5] = target: T3, OX40 on HeLa cells (HeLa-OX40) (Homo sapiens (Human), UniProt P43489 29-277); test: FACS on HeLa-OX40 cells
T3 sequence: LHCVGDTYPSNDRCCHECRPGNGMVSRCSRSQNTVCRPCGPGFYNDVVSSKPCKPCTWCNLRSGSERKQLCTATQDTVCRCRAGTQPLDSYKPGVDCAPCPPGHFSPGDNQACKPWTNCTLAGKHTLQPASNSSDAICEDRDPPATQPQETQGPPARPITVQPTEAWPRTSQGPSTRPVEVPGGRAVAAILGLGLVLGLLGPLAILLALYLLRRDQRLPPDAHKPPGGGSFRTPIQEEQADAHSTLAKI

[6] = target: PD-L1 on CHO cells (CHO-PD-L1) (Homo sapiens (Human), UniProt Q9NZQ7 19-290); test: FACS on CHO-PD-L1 cells
PD-L1 on CHO cells (CHO-PD-L1), sequence (Q9NZQ7 19-290 limits assumed, form in doubt): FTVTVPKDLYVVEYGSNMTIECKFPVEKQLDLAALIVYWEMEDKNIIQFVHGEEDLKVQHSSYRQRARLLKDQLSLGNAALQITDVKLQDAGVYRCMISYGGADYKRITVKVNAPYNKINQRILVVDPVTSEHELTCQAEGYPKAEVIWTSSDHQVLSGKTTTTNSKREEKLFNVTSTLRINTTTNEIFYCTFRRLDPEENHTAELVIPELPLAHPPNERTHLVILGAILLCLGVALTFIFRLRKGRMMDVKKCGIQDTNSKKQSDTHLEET

B1: OX40-His (Example 11) (receptor, not shown: small tags and cut ends)
chain: VTARRLNCVKHTYPSGHKCCRECQPGHGMVSRCDHTRDTLCHPCETGFYNEAVNYDTCKQCTQCNHRSGSELKQNCTPTQDTVCRCRPGTQPRQDSGYKLGVDCVPCPPGHFSPGNNQACKPWTNCTLSGKQTRHPASDSLDAVCEDRSLLATLLWETQRPTFRPTTVQSTTVWPRTSELPSPPTLVTPEGP
Kd [1]: 9.62 nM

Binder: B2
EC50 [2]: 20.2 nM

Binder: B4
Kd [4]: 55.6 nM
koff [4]: 0.00262 s⁻¹
kon [4]: 47200 M⁻¹ s⁻¹

The remaining lines, values ahead:

Kd [3]: 0.756 nM
B3: recombinant murine CD40 protein (receptor, UniProt P27512 24-193, looked up)
chain: VTCSDKQYLHDGQCCDLCQPGSRLTSHCTALEKTQCHPCDSGEFSAQWNREIRCHQHRHCEPNQGLRVKKEGTAESDTVCTCKEGQHCTSKDCEACAQHTPCIPGFGVMEMATETTDTVCHPCPVGFFSNQSSLFEKCYPWTSCEDKNLEVLQKGTSQTNVICGLKSRMR
notes: also called mCD40

EC50 [5]: 6 nM
EC50 [6]: 27 nM
B5: PD-1_IgG4_OX40L (1) (Fc fusion)
chain: LDSPDRPWNPPTFSPALLVVTEGDNATFTCSFSNTSESFVLNWYRMSPSNQTDKLAAFPEDRSQPGQDCRFRVTQLPNGRDFHMSVVRARRNDSGTYLCGAISLAPKAQIKESLRAELRVTERRAEVPTAHPSPSPRPAGQFQSKYGPPCPSCPAPEFLGGPSVFLFPPKPKDTLMISRTPEVTCVVVDVSQEDPEVQFNWYVDGVEVHNAKTKPREEQFNSTYRVVSVLTVLHQDWLSGKEYKCKVSSKGLPSSIEKTISNATGQPREPQVYTLPPSQEEMTKNQVSLTCLVKGFYPSDIAVEWESNGQPENNYKTTPPVLDSDGSFFLYSRLTVDKSSWQEGNVFSCSVMHEALHNHYTQKSLSLSLGKIEGRMDQVSHRYPRIQSIKVQFTEYKKEKGFILTSQKEDEIMKVQNNSVIINCDGFYLISLKGYFSQEVNISLHYQKDEEPLFQLKKVRSVNSLMVASLTYKDKVYLNVTTDNTSLDDFHVNGGELILIHQNPGEFCVL
